Source: the supplement of paper PMC7877785
± gives the uncertainty stated by the source.

Experiment: self-splicing fitness, log relative to wild type (ln ratio); higher = more splicing; Tetrahymena group I intron in knt gene, E. coli kanamycin selection, DiMSum; sequences stand for … in CUCUCU…GGAGGGAAAAGUUAUCAGGCAUGCACCUGGUAGCUAGUCUUUAAACCAAUAGAUUGCAUCGGUUUAAAAGGCAAGACCGUCAAAUUGCGGGAAAGGGGUCAACAGCCGUUCAGUACCAAGUCUCAGGGGAAACUUUGAGAUGGCCUUGCAAAGGGUAUGGUAAUAAGCUGACGGACAUGGUCCUAACCACGCAGCCAAGUCCUAAGUCAACAGAUCUUCUGUUGAUAUGGAUGCAGUUCACAGACUAAAUGUCGGUCGGGGAAGAUGUAUUCUUCUCAUAAGAUAUAGUCGGACCUCUCCUUAAUGGGAGCUAGCGGAUGAAGUGAUGCAACACUGGAGCCGCUGGGAACUAAUUUGUAUGCGAAAGUAUAUUGAUUAGUUUUGGAGUACUCGUGGUCG
Outline: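 A randomised library covering all eight P1ex-region intron nucleotides was built with the intron in the knt kanamycin-resistance gene on pET-22b(+) and held in E. coli BL21(DE3). Cells were grown overnight at 37°C or 30°C on LB agar, with or without 25 μg/mL kanamycin, plus 100 μg/mL carbenicillin, 50 μM IPTG and 0.2% rhamnose, and pooled colonies were amplicon-sequenced on an Illumina HiSeq 2500. DiMSum fitness is the error-weighted combination of wild-type-normalised replicate fold changes, kanamycin versus none.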

Row | Sequence | self-splicing fitness (ln) (30 °C) | self-splicing fitness (ln) (37 °C)
1 | UUAAAGCAAUAUUACGCCUG | 0.63 ± 0.16 | 1 ± 0.17
2 | ACCAAGCAAUAUUACGAUUC | -1.48 ± 0.1 | -1.04 ± 0.14
3 | GAGAAGCAAUAUUACGUCCU | -1.59 ± 0.23 | 
4 | GCAUAGCAAUAUUACGUUAG | -2.48 ± 0.12 | -1.96 ± 0.15
5 | GCAGAGCAAUAUUACGGCGA | -2.12 ± 0.11 | -1.55 ± 0.11
6 | CUUUAGCAAUAUUACGGAUC | -3.81 ± 0.35 | -1.53 ± 0.18
7 | UCGGAGCAAUAUUACGGGGU | -3.57 ± 0.29 | 
8 | AAAUAGCAAUAUUACGCACA | -0.634 ± 0.097 | -0.2 ± 0.14
9 | AGCUAGCAAUAUUACGUCUA | -1.49 ± 0.11 | -0.745 ± 0.13
10 | AUUGAGCAAUAUUACGUAAA | -1.7 ± 0.15 | -2.91 ± 0.34
11 | UUGGAGCAAUAUUACGUCCU | -2.05 ± 0.2 | -0.535 ± 0.17
12 | UCGAAGCAAUAUUACGUUAG | -1.25 ± 0.1 | -1.35 ± 0.13
13 | CUAUAGCAAUAUUACGGAAA | -2.82 ± 0.2 | -2.06 ± 0.42
14 | CUAUAGCAAUAUUACGUGUA | -2.77 ± 0.33 | -2.55 ± 0.26
15 | UCAAAGCAAUAUUACGGCGC | -1.8 ± 0.1 | -1.41 ± 0.13
16 | CAGAAGCAAUAUUACGGAGC | -3.14 ± 0.34 | -2.32 ± 0.31
17 | CAUGAGCAAUAUUACGUCUG | -1.41 ± 0.073 | -1.06 ± 0.073
18 | UCCUAGCAAUAUUACGGGUC | -3.81 ± 0.22 | -2.71 ± 0.28
19 | UUCCAGCAAUAUUACGUAAU | -2.36 ± 0.11 | -0.639 ± 0.12
20 | GUGGAGCAAUAUUACGAAGA |  | -2.05 ± 0.49
21 | UGAUAGCAAUAUUACGCAGA | -3.31 ± 0.24 | -1.38 ± 0.11
22 | AAGAAGCAAUAUUACGAGGC | -3.86 ± 0.42 | -2.48 ± 0.33
23 | CAGGAGCAAUAUUACGAGGG | -3.21 ± 0.24 | -1.97 ± 0.2
24 | UCAUAGCAAUAUUACGAUAU | -3.76 ± 0.32 | -2.4 ± 0.29
25 | CCGGAGCAAUAUUACGCGUU | -2.5 ± 0.28 | -2.28 ± 0.24
26 | GCCGAGCAAUAUUACGGGGC | -4.27 ± 0.39 | -2.28 ± 0.27

Row | Sequence | self-splicing fitness (ln) (30 °C) | self-splicing fitness (ln) (37 °C)
27 | AGGUAGCAAUAUUACGCGCA | -0.305 ± 0.016 | 0.00281 ± 0.034
28 | GGUAAGCAAUAUUACGCUAC | -2.3 ± 0.4 | -2.23 ± 0.37
29 | ACCAAGCAAUAUUACGAUAA | -3.07 ± 0.18 | -1.46 ± 0.16
30 | CAUCAGCAAUAUUACGUUCA | -2.66 ± 0.16 | -1.77 ± 0.15
31 | CGACAGCAAUAUUACGAGUA | -3.58 ± 0.18 | -1.52 ± 0.12
32 | UACAAGCAAUAUUACGAGGG | -2.8 ± 0.14 | -1.47 ± 0.14
33 | CGGUAGCAAUAUUACGAGUC | -2.07 ± 0.43 | 
34 | CGGCAGCAAUAUUACGAGUU | -5.14 ± 0.41 | -2.69 ± 0.29
35 | CCAGAGCAAUAUUACGUUCA | -2.45 ± 0.32 | -2.32 ± 0.34
36 | CCACAGCAAUAUUACGAUUG | -1.3 ± 0.05 | -0.453 ± 0.067
37 | GCCAAGCAAUAUUACGUGUG | -1.8 ± 0.07 | -0.823 ± 0.08
38 | AUAGAGCAAUAUUACGGCCG | -0.599 ± 0.24 | -1.36 ± 0.45
39 | UGGAAGCAAUAUUACGUCAC |  | -1.54 ± 0.24
40 | AGAUAGCAAUAUUACGGCCC | -0.127 ± 0.19 | -0.606 ± 0.23
41 | AUCUAGCAAUAUUACGUUGU | -3.68 ± 0.17 | -2.27 ± 0.13
42 | GGAUAGCAAUAUUACGUUUG | -2.95 ± 0.2 | -1.87 ± 0.21
43 | CACAAGCAAUAUUACGUUAA | -4.3 ± 0.27 | -2.28 ± 0.13
44 | UCACAGCAAUAUUACGGCGG | -0.848 ± 0.056 | 0.0491 ± 0.078
45 | GUCUAGCAAUAUUACGAGUC | -1.93 ± 0.11 | -1.88 ± 0.093
46 | GGCUAGCAAUAUUACGAUAG |  | -2.41 ± 0.39
47 | AAUGAGCAAUAUUACGCGUC | -3.02 ± 0.29 | -2.25 ± 0.29
48 | CCGUAGCAAUAUUACGUUUG | -1 ± 0.081 | -0.134 ± 0.096
49 | UUCUAGCAAUAUUACGUGUU | -3.36 ± 0.17 | -3.2 ± 0.19
50 | ACUAAGCAAUAUUACGCCCU | 0.438 ± 0.23 | -0.36 ± 0.26
51 | CGAUAGCAAUAUUACGAAGG | -0.374 ± 0.11 | -0.55 ± 0.17
52 | UAUGAGCAAUAUUACGCUUU | -4.14 ± 0.33 | -2.65 ± 0.36

Row | Sequence | self-splicing fitness (ln) (30 °C) | self-splicing fitness (ln) (37 °C)
53 | AUGGAGCAAUAUUACGUCGU | -2.38 ± 0.15 | -1.45 ± 0.18
54 | UUUGAGCAAUAUUACGUCUC | -3.52 ± 0.29 | -2.7 ± 0.33
55 | AGUCAGCAAUAUUACGUAAC | -1.88 ± 0.099 | -1.37 ± 0.11
56 | AUGCAGCAAUAUUACGCUAC | -3.31 ± 0.21 | -2.38 ± 0.23
57 | CAAGAGCAAUAUUACGGAGG | -1.85 ± 0.083 | -1.3 ± 0.13
58 | CUCUAGCAAUAUUACGGGCG | -2.25 ± 0.17 | -2.36 ± 0.19
59 | AUCGAGCAAUAUUACGAAGA | -1.74 ± 0.44 | -1.65 ± 0.38
60 | AUAAAGCAAUAUUACGGGUC | -3.45 ± 0.19 | -1.25 ± 0.15
61 | GUCAAGCAAUAUUACGUCUU | -2.96 ± 0.071 | -1.58 ± 0.066
62 | GGACAGCAAUAUUACGGGGC | -1.63 ± 0.092 | -1.72 ± 0.13
63 | CACUAGCAAUAUUACGGUCC | -2.4 ± 0.12 | -1.29 ± 0.15
64 | CAAUAGCAAUAUUACGGUCA | -3.09 ± 0.18 | -1.55 ± 0.12
65 | GCUAAGCAAUAUUACGUUGU | -2.7 ± 0.11 | -2.43 ± 0.13
66 | AGUAAGCAAUAUUACGGAAC | -1.82 ± 0.25 | -2.6 ± 0.27
67 | UAUGAGCAAUAUUACGAGUC |  | -0.461 ± 0.46
68 | UUGUAGCAAUAUUACGCAUG | -1.86 ± 0.13 | 0.0958 ± 0.14
69 | UCCUAGCAAUAUUACGCACC | -2.95 ± 0.32 | -1.62 ± 0.25
70 | CCGAAGCAAUAUUACGCGCU |  | -2.26 ± 0.42
71 | UAUCAGCAAUAUUACGACUC | -0.81 ± 0.11 | -0.283 ± 0.12
72 | CUUCAGCAAUAUUACGAUAG | -0.458 ± 0.07 | -0.818 ± 0.1
73 | CCAGAGCAAUAUUACGAGUU | -1.94 ± 0.14 | -2.9 ± 0.27
74 | GUCCAGCAAUAUUACGCCUG | -2.5 ± 0.2 | -0.12 ± 0.21
75 | UCGCAGCAAUAUUACGCCGG | -2.67 ± 0.22 | -1.76 ± 0.38
76 | CUCCAGCAAUAUUACGAGAU | -2.99 ± 0.19 | -3.15 ± 0.21
77 | GAAUAGCAAUAUUACGUCCA | -1.28 ± 0.1 | -0.00949 ± 0.13
